Laboratory results reported in US20140335120A1.

Legend:
[1] = target: PSA65-74 peptide presented by H-2Db (PSA65-74 H-2Db tetramer; EL4 cells pulsed with H-2Db peptide) (human) (UniProt P07288); assay: PSA tetramer staining of splenocytes on day 6 after the boost, flow cytometry
[2] = target: PSA65-74 peptide presented by H-2Db (PSA65-74 H-2Db tetramer; EL4 cells pulsed with H-2Db peptide) (human) (UniProt P07288)

Row | percent PSA tetramer+CD8+CD62Llow cells [1] | percentage of CD8+CD62Llow IFN-γ secreting cells (intracellular cytokine staining after 5 h stimulation with PSA peptide) [2] | Substance
1 | 23% |  | splenocytes (PSA-specific CD8+ T cells / CTLs) of C57BL/6 mice immunized with LmddA-LLO-PSA
2 |  | 200 fold | splenocytes (PSA-specific CD8+ T cells / CTLs) of C57BL/6 mice immunized with LmddA-LLO-PSA (cells without a defined receptor)
